Results as given in patent US20090252683A1 (Amgen, published 2009).
Values belong to the binder of their own block, whether it stands above or below them. No end group written: not given here. *: point of attachment. Biotin = O=C1N[C@H]2[C@H](CS[C@H]2CCCCC(=O)*)N1; linker = not defined here

Key:
[1] = molecular target: T1, human CAIX antigen on A549 cells (human, UniProt Q16790 38-459); test: FACS, A549 cells, 1 µg/ml purified protein (FIG. 28)
[2] = molecular target: T2, human EpCAM antigen on Kato III cells or human EpCAM transfected CHO cells (human, UniProt P16422 24-265); test: cell-based or functional assay
T2 sequence: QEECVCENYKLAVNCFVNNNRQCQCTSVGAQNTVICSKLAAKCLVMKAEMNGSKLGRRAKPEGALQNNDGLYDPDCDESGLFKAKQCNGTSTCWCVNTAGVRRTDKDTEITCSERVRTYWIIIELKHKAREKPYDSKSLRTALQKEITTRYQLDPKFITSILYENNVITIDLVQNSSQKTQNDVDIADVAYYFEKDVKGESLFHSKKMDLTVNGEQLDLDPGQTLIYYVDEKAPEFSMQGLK

[3] = molecular target: cynomolgus CD3 antigen on cynomolgus PBMC / macaque T cells (Macaca fascicularis (cynomolgus), UniProt Q95LI5 22-117; Q95LI7 23-110; Q95LI8 22-103); test: cell-based or functional assay
Sequence of cynomolgus CD3 antigen on cynomolgus PBMC / macaque T cells (Q95LI5 22-117, chain 1 of 3): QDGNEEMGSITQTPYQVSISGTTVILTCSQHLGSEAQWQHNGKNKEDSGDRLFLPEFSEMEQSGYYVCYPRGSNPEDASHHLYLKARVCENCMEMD
Sequence of cynomolgus CD3 antigen on cynomolgus PBMC / macaque T cells (Q95LI7 23-110, chain 2 of 3): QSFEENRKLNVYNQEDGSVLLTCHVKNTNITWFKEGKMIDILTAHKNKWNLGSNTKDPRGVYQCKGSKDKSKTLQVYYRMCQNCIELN
Sequence of cynomolgus CD3 antigen on cynomolgus PBMC / macaque T cells (Q95LI8 22-103, chain 3 of 3): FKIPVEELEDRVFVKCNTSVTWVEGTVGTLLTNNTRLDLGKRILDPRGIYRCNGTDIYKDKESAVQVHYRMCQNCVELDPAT

[4] = molecular target: T1, human CAIX antigen on A549 cells; test: FACS, A549 cells, 1 µg/ml purified protein (FIG. 26)
Protocol: FIG. 26: FACS binding analysis of cross-species specific bispecific single chain construct CAIX HL×SEQ ID NO. 194 to HPB-ALL (human CD3+), cynomolgus PBMC (cynomolgus CD3+), A549 (human CAIX+) and CYNOM-KI (cynomolgus CAIX+) cells, respectively. The FACS staining was performed as described in Example 23. The thick line represents cells incubated with 1 μg/ml purified monomeric protein that were subsequently incubated with the anti-his antibody and the PE labeled detection antibody. The thin histogram line reflects the negative control: cells only incubated with the anti-his antibody and the detection antibody.
In order to test the functionality of the cross-species specific bispecific antibody constructs with regard to binding capability to human and cynomolgus EGFR and CD3, respectively, a FACS analysis was performed. For this purpose the EGFR positive epidermoid carcinoma A431 cells (ATCC, CRL-1555) and CD3 positive human T cell leukemia cell line HPB-ALL (DSMZ, Braunschweig, ACC483) were used to check the binding to human antigens. […] The cells were washed twice in PBS and binding of the construct was detected with an unlabeled murine Penta His antibody (diluted 1:20 in 50 μl PBS with 2% FCS; Qiagen; Order No. 34660). After washing, bound anti His antibodies were detected with an Fc gamma-specific antibody (Dianova) conjugated to phycoerythrin, diluted 1:100 in 50 μl PBS with 2% FCS. […]

[5] = molecular target: T3, biotin-linker-EFSELEQSGYYVC (human, reading uncertain; also: short linker, not given here, printed as biotin-linker-EFSELEQSGYYVC); test: dot blot, 75 µg peptide on nitrocellulose, 3 µg/ml antibody
T3 construct: also called 13mer peptide of human CD3 epsilon, biotinylated N-terminally; peptide (1)
T3 peptide: {Biotin-linker}-EFSELEQSGYYVC
Source text: (§1) To verify the epitope of the human-like cross-species specific anti-CD3 antibody fragment described in Example 16 on human CD3 epsilon, the identified binding region as determined in Experiment 18 was further analyzed by a dot-blotting assay using a 13mer peptide covering the defined binding area of amino acid residues “FSELE” on human CD3 epsilon. This peptide comprises the amino acid sequence “[…]” (SEQ ID NO. 195) of human CD3 epsilon. The peptide exists in two forms and is either biotinylated N- or C-terminally. In case of the N-terminal labelling, a short linker connects the peptide with the biotin. As described in Example 18, the antibody fragment was converted to a murine IgG format with a murine gammal heavy chain comprising the VH region as shown in SEQ ID NO. 110 and a kappa light chain comprising the VL region as shown in SEQ ID NO. 168. The dot blotting was performed as follows. The Minifold I Spot Blot System from Schleicher & Schuell was used for immobilizing the peptides on a nitrocellulose membrane (Protran BA 85, 0.45 μm). 75 μg of each peptide in 100 μl TBS were filtered through the membrane using vacuum. After the filtration step the membrane was blocked with 1×TBS/1% (w/v) blocking reagent (BM Chemiluminescence Blotting Substrate (POD) of Roche Diagnostics GmbH) for 2 h. […]

[6] = molecular target: T4, EFSELEQSGYYVC-biotin (human); test: as above
T4 construct: also called 13mer peptide of human CD3 epsilon, biotinylated C-terminally; peptide (2)
T4 peptide: EFSELEQSGYYVC-biotin
Source text: as §1

[7] = molecular target: T1, human CAIX antigen on A549 cells; test: FACS, A549 cells, 1 µg/ml purified protein (FIG. 27)

- binding result [5]: binds
- binding result [6]: binds
B4: cross-species specific anti-CD3 antibody (murine IgG1 comprising the VH chain shown in SEQ ID NO. 110 and the VL chain shown in SEQ ID NO. 168) (antibody, V domains shown)
VH: EVQLLESGGGLVQPGGSLKLSCAASGFTFNTYAMNWVRQAPGKGLEWVARIRSKYNNYATYYADSVKDRFTISRDDSKNTAYLQMNNLKTEDTAVYYCVRHGNFGNSYVSWFAYWGQGTLVTVSS
VL: ELVVTQEPSLTVSPGGTVTLTCRSSTGAVTTSNYANWVQQKPGQAPRGLIGGTNKRAPGTPARFSGSLLGGKAALTLSGVQPEDEAEYYCALWYSNLWVFGGGTKLTVL
notes: full IgG with a murine gamma1 heavy chain and a kappa light chain; also called human-like cross-species specific anti-CD3 antibody; cross-species specific anti-CD3 IgG1 antibody

- binding result [7]: binds
B6: CAIX HL × SEQ ID NO. 170 (bispecific antibody)
chain: DVKLVESGGGLVKLGGSLKLSCAASGFTFSNYYMSWVRQTPEKRLELVAAINSDGGITYYLDTVKGRFTISRDNAKNTLYLQMSSLKSEDTALFYCARHRSGYFSMDYWGQGTSVTVSSGGGGSGGGGSGGGGSDIVMTQSQRFMSTTVGDRVSITCKASQNVVSAVAWYQQKPGQSPKLLIYSASNRYTGVPDRFTGSGSGTDFTLTISNMQSEDLADFFCQQYSNYPWTFGGGTKLEIKSGGGGSEVQLVESGGGLVQPGGSLKLSCAASGFTFNTYAMNWVRQAPGKGLEWVARIRSKYNNYATYYADSVKDRFTISRDDSKNTAYLQMNNLKTEDTAVYYCVRHGNFGNSYVSWFAYWGQGTLVTVSSGGGGSGGGGSGGGGSQTVVTQEPSLTVSPGGTVTLTCRSSTGAVTTSNYANWVQQKPGQAPRGLIGGTNKRAPGTPARFSGSLLGGKAALTLSGVQPEDEAEYYCALWYSNLWVFGGGTKLTVLHHHHHH
notes: the appendix prints the entry with HHHHHH and then *VD at its end

Continued, binder first:

B1: CAIX LH × SEQ ID NO. 170 (bispecific antibody)
chain: DIVMTQSQRFMSTTVGDRVSITCKASQNVVSAVAWYQQKPGQSPKLLIYSASNRYTGVPDRFTGSGSGTDFTLTISNMQSEDLADFFCQQYSNYPWTFGGGTKLEIKGGGGSGGGGSGGGGSDVKLVESGGGLVKLGGSLKLSCAASGFTFSNYYMSWVRQTPEKRLELVAAINSDGGITYYLDTVKGRFTISRDNAKNTLYLQMSSLKSEDTALFYCARHRSGYFSMDYWGQGTSVTVSSSGGGGSEVQLVESGGGLVQPGGSLKLSCAASGFTFNTYAMNWVRQAPGKGLEWVARIRSKYNNYATYYADSVKDRFTISRDDSKNTAYLQMNNLKTEDTAVYYCVRHGNFGNSYVSWFAYWGQGTLVTVSSGGGGSGGGGSGGGGSQTVVTQEPSLTVSPGGTVTLTCRSSTGAVTTSNYANWVQQKPGQAPRGLIGGTNKRAPGTPARFSGSLLGGKAALTLSGVQPEDEAEYYCALWYSNLWVFGGGTKLTVLHHHHHH
notes: as for B6
- binding result [1]: binds

B2: 5-10LH×SEQ ID NO. 12 bispecific single chain antibody (bispecific antibody)
chain: ELVMTQSPSSLTVTAGEKVTMSCKSSQSLLNSGNQKNYLTWYQQKPGQPPKLLIYWASTRESGVPDRFTGSGSGTDFTLTISSVQAEDLAVYYCQNDYSYPLTFGAGTKLEIKGGGGSGGGGSGGGGSEVQLLEQSGAELVRPGTSVKISCKASGYAFTNYWLGWVKQRPGHGLEWIGDIFPGSGNIHYNEKFKGKATLTADKSSSTAYMQLSSLTFEDSAVYFCARLRNWDEPMDYWGQGTTVTVSSGGGGSQAVVTQESALTTSPGETVTLTCRSSTGAVTTSNYANWVQEKPDHLFTGLIGGTNKRAPGVPARFSGSLIGDKAALTITGAQTEDEAIYFCALWYSNLWVFGGGTKLTVLGGGGSGGGGSGGGGSEVKLLESGGGLVQPKGSLKLSCAASGFTFNTYAMNWVRQAPGKGLEWVARIRSKYNNYATYYADSVKDRFTISRDDSQSILYLQMNNLKTEDTAMYYCVRHGNFGNSYVSWFAYWGQGTLVTVSAHHHHHH
- EC50 (half maximal killing), FACS-based cytotoxicity, Kato III target cells, human PBMC effector cells [2]: 0.0015 ng/mL
- EC50 (half maximal killing), FACS-based cytotoxicity, Kato III target cells, cynomolgus PBMC effector cells [3]: 0.069 ng/mL

B3: CAIX HL × SEQ ID NO. 194 (bispecific antibody)
chain: DVKLVESGGGLVKLGGSLKLSCAASGFTFSNYYMSWVRQTPEKRLELVAAINSDGGITYYLDTVKGRFTISRDNAKNTLYLQMSSLKSEDTALFYCARHRSGYFSMDYWGQGTSVTVSSGGGGSGGGGSGGGGSDIVMTQSQRFMSTTVGDRVSITCKASQNVVSAVAWYQQKPGQSPKLLIYSASNRYTGVPDRFTGSGSGTDFTLTISNMQSEDLADFFCQQYSNYPWTFGGGTKLEIKSGGGGSQTVVTQEPSLTVSPGGTVTLTCRSSTGAVTTSNYANWVQQKPGQAPRGLIGGTNKRAPGTPARFSGSLLGGKAALTLSGVQPEDEAEYYCALWYSNLWVFGGGTKLTVLGGGGSGGGGSGGGGSEVQLVESGGGLVQPGGSLKLSCAASGFTFNTYAMNWVRQAPGKGLEWVARIRSKYNNYATYYADSVKDRFTISRDDSKNTAYLQMNNLKTEDTAVYYCVRHGNFGNSYVSWFAYWGQGTLVTVSSHHHHHH
notes: as for B6
- binding result [4]: binds

B5: 5-10LH×SEQ ID NO. 14 bispecific single chain antibody (bispecific antibody)
chain: ELVMTQSPSSLTVTAGEKVTMSCKSSQSLLNSGNQKNYLTWYQQKPGQPPKLLIYWASTRESGVPDRFTGSGSGTDFTLTISSVQAEDLAVYYCQNDYSYPLTFGAGTKLEIKGGGGSGGGGSGGGGSEVQLLEQSGAELVRPGTSVKISCKASGYAFTNYWLGWVKQRPGHGLEWIGDIFPGSGNIHYNEKFKGKATLTADKSSSTAYMQLSSLTFEDSAVYFCARLRNWDEPMDYWGQGTTVTVSSGGGGSQVQLQQSGAELARPGASVKMSCKASGYTFTRSTMHWVKQRPGQGLEWIGYINPSSAYTNYNQKFKDKATLTADKSSSTAYMQLSSLTSEDSAVYYCASPQVHYDYNGFPYWGQGTLVTVSAGGGGSGGGGSGGGGSQVVLTQSPAIMSAFPGEKVTMTCSASSSVSYMNWYQQKSGTSPKRWIYDSSKLASGVPARFSGSGSGTSYSLTISSMETEDAATYYCQQWSRNPPTFGGGTKLQITHHHHHH
- EC50 (half maximal killing), FACS-based cytotoxicity, Kato III target cells, human PBMC effector cells [2]: 0.0013 ng/mL
- EC50 (half maximal killing), FACS-based cytotoxicity, Kato III target cells, cynomolgus PBMC effector cells [3]: 0.087 ng/mL
